Test results published in the supplement of paper PMC12042874.
± gives the uncertainty stated by the source.

assay: amyloid nucleation score (Sup35N fusion, yeast selection) (log enrichment); library NNK3; higher = more nucleation; inactive = no reads after selection
How it was run: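 Growth for 7 days at 30°C on medium lacking adenine and uracil followed a 24-hour induction with 100 μM copper sulfate of psi-negative yeast expressing peptides of 20 random codons fused to Sup35N. Input and output plasmid inserts were sequenced with Illumina, and sequences with under 100 input reads were excluded. Nucleation score is the DiMSum log enrichment of output over input reads, centred on the mode score of non-aggregating sequences.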

Substance | amyloid nucleation score
ILSSKSTNENVSYFLLKM | 0.794 ± 0.099
ILVCESV | inactive
ILVKIVSWVHLKRTVGTDQD | inactive
ILVSFVVGTNLLWGDASVRW | 0.236 ± 0.48
ILWFMDGMIRSRGVPLGDGC | inactive
ILYICHINKGVGGQIGVMAV | inactive
ILYSGVIILYSFYIRRPMVL | inactive
IMCYLSITRWKDM | inactive
IMELLQV | inactive
IMIYSQPKGEASCFGCFRLG | 0.702 ± 0.17
IMKCICVYVFINCHKWDVHA | inactive
IMKFDSRAYNGYMQMIRPGV | inactive
IMNCVLMKDIWYSVFNHR | 2.44 ± 0.067
IMNSPKGYTILWRGSLRGIQ | inactive
IMPRPIKSRLNKNFLWAVVC | inactive
IMRGITEGWEPLVVES | inactive
IMRLHC | inactive
IMVCKWTSPTSTMPHDDLGC | inactive
IMVKLSIIIVYC | 1.76 ± 0.083
IMVRGVRDS | inactive
IMVVQYTWDWPGCCWIRWYL | inactive
IMVWLRARSITYNQVDDRGS | inactive
IMYLRETGTK | inactive
INCSLENLINKDLWVSSQVC | inactive

Substance | amyloid nucleation score
INDLQTSPR | inactive
INLTYRVTVRVQISAPGMCA | -0.206 ± 0.65
INNLFTRVSSIRFCVRS | inactive
INTNAYSGLEIYRYSTIAKG | inactive
INVDGKNNPSRREKTISMGG | inactive
INWYIHFRPLWQGFR | inactive
IPALIVISQYRGANRFDCAF | inactive
IPFGFSI | inactive
IPFLDKGYGR | inactive
IPFNPALLVPRGFGSFIIPA | inactive
IPYDSSLLNSSNVCYLI | inactive
IQANSLLSRLLRLSGNCCWM | 0.127 ± 0.8
IQFLTNKQALLEKFPGKSPW | inactive
IQLCTKIYSITKV | inactive
IRDLSLNQSGYFTFVTCWRC | 2.73 ± 0.067
IRDVG | -0.573 ± 1
IRLFHEAIKGDLC | inactive
IRMIDWILLDAVT | inactive
IRNGYSRICRIQRLGSMGM | inactive
IRTSGSMYIISIWRWVGRTL | inactive
ISALKQSS | inactive
ISCIGPFCSTIPLIKLNLIE | 1.3 ± 0.1
ISDTSCHIDTLRFLGRVRFL | inactive
ISLVAAKLRTCF | inactive

Substance | amyloid nucleation score
ISSAYCGHIGLAAINRLILT | inactive
ISSFGARNTPWRTLSPAPEG | 0.184 ± 0.32
ISSPNEVWSVIVEWPRIYC | inactive
ISTRPSM | inactive
ISTVNNIRIRFASKLGFFE | 1.25 ± 0.071
ISVVMDNSACG | inactive
ISYNTVRYRYGFVYNRLLPW | inactive
ITDLYF | inactive
ITGVFCTSHVRFNINFKLWE | 1.97 ± 0.063
ITPWCFLVSCIRVSYAIVPT | inactive
ITSCCFVTLISVMSYGPCFG | 2.45 ± 0.089
IVCYLSFASLDDLRTRHMCT | inactive
IVERKVRPAHFYYSLVYEQS | inactive
IVFNGLRSMNRE | inactive
IVITHANTWMLLLVFPITAN | inactive
IVRYTHSSLVYFTDEMMVNR | 1.19 ± 0.12
IVSCTCDRMADLGST | inactive
IVSWLVRMVSWGVCRK | inactive
IVWASTWTCCTN | 2.73 ± 0.049
IVYMDECLYQFNGPDVVPMF | inactive
IVYYGVTGLTRGFSEVRKIS | inactive
IWFKWNRCNVRGMTWTDFYA | 1.17 ± 0.082
IWFWKGICLRYTSRKGMNLR | 1.75 ± 0.11
IWMWLKTQSISRLGTGRTTN | inactive

Substance | amyloid nucleation score
IWPNRHGLKNVLRDQREATL | inactive
IWTLS | inactive
IWVWVWSYWGRNFLSLVRFV | inactive
IWWKNIGCAKYWVIPLRQWA | inactive
IYAPRR | inactive
IYCVNSSAFVLEPF | inactive
IYKSTFFKVRTSGPGRHFGF | 0.186 ± 0.37
IYPFSDMLSFWGMGKCELLR | -0.361 ± 1.1
IYPVNFGWLLGFCAHPAIYD | inactive
IYRLKDRLDDLVSHVDICVV | inactive
IYRVYYDSTLGMCPAWGFYK | inactive
IYSMYQCLFVEHFS | inactive
IYTCSTRSSSFYRRMIRSFL | inactive
IYTVWMAKGVTPVQKGPSRY | inactive
IYVARSGARGRGSWSLCKIC | 0.629 ± 0.28
IYVDVNSDP | inactive
IYVVLQTWHNYAMLTITGLV | 0.228 ± 0.67
IYYIDL | inactive
KAFCFF | 1.24 ± 0.12
KAFFESMFWV | inactive
KARANFVYAKFHFTRAP | inactive
KAVLWFGDIWRQVG | inactive
KAYISVIGKLDYQNFSMKRF | 2.41 ± 0.054
KCCEQRAIIPFVGRTRSHAT | inactive

Substance | amyloid nucleation score
KCISSRARK | inactive
KCMGVSWLSNIVRSIRVIIS | inactive
KCMQVVSSRSWVVHWGWKGG | inactive
KCNRFRG | inactive
KCSNLVAFVI | inactive
KCTANL | inactive
KDKQVV | inactive
KDLWCSDSRS | inactive
KDNTYVIFFYYLFVFVRTFL | inactive
KDVPPFFSSSFNWAGLRKDK | 0.436 ± 0.41
KERVNRSLTYTVFSS | inactive
KEWVMRLSVGYIDSFHRFAW | inactive
KFGSLWRSNESDSSNSALRY | inactive
KFLLTWK | inactive
KFSCINVDPMHYSNSWTT | inactive
KFSTTFVTCSIVLVRILLDL | inactive
KFVFSFGSLYSVLTLERVEG | 0.388 ± 0.2
KGCNYVNNSTAMLSRRSFYS | inactive
KGGSVGHQQLYMCWQYNPVF | inactive
KGHCQAVGLKEEKPR | inactive
KGTSR | inactive
KGVDQGISECFLAVWFGRMN | inactive
KGYCFAYRQNSVELIP | inactive
